target: T1, TL1A in human blood (endogenous) (human, UniProt O95150 72-251, limits assumed); assay: cell-based or functional assay
T1 sequence (looked up): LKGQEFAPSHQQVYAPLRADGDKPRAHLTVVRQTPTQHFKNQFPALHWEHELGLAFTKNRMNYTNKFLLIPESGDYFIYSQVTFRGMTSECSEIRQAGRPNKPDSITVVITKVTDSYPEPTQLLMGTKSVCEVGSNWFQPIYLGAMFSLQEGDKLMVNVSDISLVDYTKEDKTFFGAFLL

Row | Binder | % Inhibition at 1 nM Ig (inhibition of interferon gamma release in human blood) [%] | % Inhibition at 10 nM Ig (inhibition of interferon gamma release in human blood) [%]
1 | A147 (antibody, human IgG1, V domains shown) VH: QVQLVQSGAEVKKPGASVKVSCKASGFDIQDTYMHWVKQRPGQGLEWMGRIEPASGHIKYDPKFQGRVTMTRDTSTSTVYMELSSLRSEDTAVYYCARSGGLPDWWGQGTTVTVSS VL: EIVLTQSPGTLSLSPGERATLSCRASSSVSYMYWYQQKPGQAPRPLIYATSNLASGIPDRFSGSGSGTDFTLTISRLEPEDFAVYYCQQWEGNPRTFGGGTKLEIK | 51.3 | 72.4
2 | A213 (antibody, human IgG1, V domains shown) VH: QVQLVQSGAEVKKPGASVKVSCKASGFDIQDTYMHWVRQRPGQGLEWMGRIDPASGHTKYDPKFQVRVTITTDTSTSTVYMELSSLRSEDTAVYYCARSGGLPDVWGQGTTVTVSS VL: EIVLTQSPGTLSLSPGERATLSCRASSSVSYMYWYQQKPGQAPRPLIYATSNLASGIPDRFSGSGSGTDFTLTISRLEPEDFAVYYCQQWEGNPRTFGGGTKLEIK | 48.6 | 69.8
3 | A219 (antibody, human IgG1, V domains shown) VH: QVQLVQSGAEVKKPGASVKVSCKASGFDIQDTYMHWVKQRPGQGLEWMGRIDPASGHTKYDPKFQVRVTITRDTSTSTVYLELSSLRSEDTAVYYCARSGGLPDVWGQGTTVTVSS VL: EIVLTQSPGTLSLSPGERATLSCRASSSVSYMYWYQQKPGQAPRPLIYATSNLASGIPDRFSGSGSGTDFTLTISRLEPEDFAVYYCQQWEGNPRTFGGGTKLEIK | 59.8 | 75.2
4 | A220 (antibody, human IgG1, V domains shown) VH: QVQLVQSGAEVKKPGASVKVSCKASGFDIQDTYMHWVKQRPGQGLEWMGRIDPASGHTKYDPKFQVRVTMTRDTSTSTAYLELSSLRSEDTAVYYCARSGGLPDVWGQGTTVTVSS VL: EIVLTQSPGTLSLSPGERATLSCRASSSVSYMYWYQQKPGQAPRPWIYATSNLASGIPDRFSGSGSGTDFTLTISRLEPEDFAVYYCQQWEGNPRTFGGGTKLEIK | 36.9 | 63.2
5 | A217 (antibody, human IgG1, V domains shown) VH: QVQLVQSGAEVKKPGASVKVSCKASGFDIQDTYMHWVKQRPGQGLEWMGRIDPASGHTKYDPKFQVRVTITRDTSTSTVYMELSSLRSEDTAVYYCARSGGLPDVWGQGTTVTVSS VL: EIVLTQSPGTLSLSPGERATLSCRASSSVSYMYWYQQKPGQAPRPLIYATSNLASGIPDRFSGSGSGTDFTLTISRLEPEDFAVYYCQQWEGNPRTFGGGTKLEIK | 46 | 72.2
6 | A212 (antibody, human IgG1, V domains shown) VH: QVQLVQSGAEVKKPGASVKVSCKASGFDIQDTYMHWVRQRPGQGLEWIGRIDPASGHTKYDPKFQVRATITTDTSTSTAYLELSSLRSEDTAVYYCARSGGLPDVWGQGTTVTVSS VL: EIVLTQSPGTLSLSPGERATLSCRASSSVSYMYWYQQKPGQAPRPLIYATSNLASGIPDRFSGSGSGTDFTLTISRLEPEDFAVYYCQQWEGNPRTFGGGTKLEIK | 46.8 | 71.2

— US20260066079A1 (published 2026)
